This note sets out measurements from US20130273089A1 (TOLERA THERAPEUTICS, published 2013).

Experiment [1] addresses T1, CD14 on cells expressing CD14 (monocyte lineage/NK cells) (UniProt P08571 20-345, limits assumed).
T1 construct: whole, on cells
T1 sequence (looked up): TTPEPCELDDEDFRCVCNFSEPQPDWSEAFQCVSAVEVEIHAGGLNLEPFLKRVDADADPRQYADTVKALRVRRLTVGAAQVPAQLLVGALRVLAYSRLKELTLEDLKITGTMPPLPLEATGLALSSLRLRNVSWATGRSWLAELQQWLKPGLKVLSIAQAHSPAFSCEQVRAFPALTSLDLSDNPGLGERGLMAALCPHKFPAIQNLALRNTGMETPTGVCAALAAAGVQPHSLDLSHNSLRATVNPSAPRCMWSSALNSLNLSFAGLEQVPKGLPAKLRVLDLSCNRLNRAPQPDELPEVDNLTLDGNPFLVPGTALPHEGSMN
Put plainly: flow cytometry on PBMC from 6 donors.

In experiment [2] the target is human αβ T cell receptor (αβ TCR) on T cells (human). Put plainly: cell-based or functional assay.

B1: TOL101 murine anti-αβ TCR monoclonal IgM antibody produced by the hybridoma TOL101 MCB (ATCC PTA-13293) (antibody)
heavy: QVQLQQSGAELARPGASVKMSCKASGYTFTSYTMHWVKQRPGQGLEWIGYINPSSGYTNYNQKFKDKATLTADKSSSTAYMQLSSLTSEDSAVYYCARWRDAYYAMDYWGQGTSVTVSSESQSFPNVFPLVSCESPLSDKNLVAMGCLARDFLPSTISFTWNYQNNTEVIQGIRTFPTLRTGGKYLATSQVLLSPKSILEGSDEYLVCKIHYGGKNRDLHVPIPAVAEMNPNVNVFVPPRDGFSGPAPRKSKLICEATNFTPKPITVSWLKDGKLVESGFTTDPVTIENKGSTPQTYKVISTLTISEIDWLNLNVYTCRVDHRGLTFLKNVSSTCAASPSTDILTFTIPPSFADIFLSKSANLTCLVSNLATYETLNISWASQSGEPLETKIKIMESHPNGTFSAKGVASVCVEDWNNRKEFVCTVTHRDLPSPQKKFISKPNEVHKHPPAVYLLPPAREQLNLRESATVTCLVKGFSPADISVQWLQRGQLLPQEKYVTSAPMPEPGAPGFYFTHSILTVTEEEWNSGETYTCVVGHEALPHLVTERTVDKSTGKPTLYNVSLIMSDTGGTCY
light: QIVLTQSPAIMSASPGEKVTMTCSASSSVSYMHWYQQKSGTSPKRWIYDTSKLASGVPARFSGSGSGTSYSLTISSMEAEDAATYYCQQWSSNPFTFGSGTKLEIKRADAAPTVSIFPPSSEQLTSGGASVVCFLNNFYPKDINVKWKIDGSERQNGVLNSWTDQDSKDSTYSMSSTLTLTKDEYERHNSYTCEATHKTSTSPIVKSFNRNEC
chain: GDDEATILADNKCMCTRVTSRIIPSTEDPNEDIVERNIRIVVPLNNRENISDPTSPLRRNFVYHLSDVCKKCDPVEVELEDQVVTATQSNICNEDDGVPETCYMYDRNKCYTTMVPLRYHGETKMVQAALTPDSCYPD
notes: Murine IgM kappa (IgMκ); It was detected with anti-mouse IgM in flow cytometry; also called TOL101 antibody; TOL101 mAb
Regarding B1, the binding result in experiment [1] is “no binding”. In addition, in experiment [2], the calcium flux in CD4 T cells (Fluo-4) (% of CD4 T cells) turned out to be 15.
